The results in this text go back to publication PMC5134096.

The assay has as its target soluble manganese peroxidase (MnP) from Irpex lacteus F17 (Irpex lacteus F17). Nature of the assay: SEC + other: dynamic light scattering; soluble MnP after Ni-NTA; HiLoad 16/60 Superdex 200 in 20 mM Tris-HCl pH 8.0, 200 mM NaCl; SEC peak II, DLS at room temperature at 0.1 mg/ml in the same buffer.

For the substance “soluble manganese peroxidase (MnP) from Irpex lacteus F17 (enzyme)”, the stoichiometry N was determined as 2.

Usually stoichiometry N stands for a count of units in the complex or per binding partner.
